# Data from article PMC6752053 (Cell, 2019).
# B1: His6-Pbp1_LC (C-terminal low-complexity region of Pbp1, a.a.570-722) (domain or fragment, S. cerevisiae, UniProt P53297 570-722, looked up)
# chain: NSMGNAVPGMNPAMGMNMGGMMGFPMGGPSASPNPMMNGFAAGSMGMYMPFQPQPMFYHPSMPQMMPVMGSNGAEEGGGNISPHVPAGFMAAGPGAPMGAFGYPGGIPFQGMMGSGPSGMPANGSAMHSHGHSRNYHQTSHHGHHNSSTSGHK
# Target: the molecule itself
# Experiment: X-ray diffraction of polymer pellets
protein,measurement,value
B1,binding result,binds
